Assay results taken from publication PMC11472053, “Structural basis of DNA recognition by BEN domain proteins reveals a role for oligomerization in unmethylated DNA selection by BANP” (Nucleic Acids Research, 2024).
Changes are numbered by the printed parent chain.

T1: NACC1 BEN D462A (human, UniProt Q96RE7 341-477, D462A)
T1 sequence: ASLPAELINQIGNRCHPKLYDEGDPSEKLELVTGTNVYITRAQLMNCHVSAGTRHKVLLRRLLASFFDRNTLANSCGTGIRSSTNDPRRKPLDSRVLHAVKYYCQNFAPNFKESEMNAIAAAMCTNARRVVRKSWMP

T2: NACC1 BEN R429A (human, UniProt Q96RE7 341-477, R429A)
T2 sequence: T1 sequence with R89A, A122D

T3: NACC1 BEN R421A (human, UniProt Q96RE7 341-477, R421A)
T3 sequence: T1 sequence with R81A, A122D

T4: NACC1 BEN N466A (human, UniProt Q96RE7 341-477, N466A)
T4 sequence: T1 sequence with A122D, N126A

T5: NACC1 BEN WT (human, UniProt Q96RE7 341-477)
T5 sequence: T1 sequence with A122D

T6: NACC1 BEN R472A (human, UniProt Q96RE7 341-477, R472A)
T6 sequence: T1 sequence with A122D, R132A

T7: NACC1 BEN R469A (human, UniProt Q96RE7 341-477, R469A)
T7 sequence: T1 sequence with A122D, R129A

T8: BANP BEN WT (human, UniProt Q8N9N5 205-325)
T8 sequence: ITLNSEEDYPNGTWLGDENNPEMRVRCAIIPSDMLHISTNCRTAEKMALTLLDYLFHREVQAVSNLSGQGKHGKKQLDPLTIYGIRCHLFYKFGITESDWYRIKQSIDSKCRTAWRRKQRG

T9: BANP CC-BEN (ΔDBD) (human, UniProt Q8N9N5 1-360)
T9 sequence: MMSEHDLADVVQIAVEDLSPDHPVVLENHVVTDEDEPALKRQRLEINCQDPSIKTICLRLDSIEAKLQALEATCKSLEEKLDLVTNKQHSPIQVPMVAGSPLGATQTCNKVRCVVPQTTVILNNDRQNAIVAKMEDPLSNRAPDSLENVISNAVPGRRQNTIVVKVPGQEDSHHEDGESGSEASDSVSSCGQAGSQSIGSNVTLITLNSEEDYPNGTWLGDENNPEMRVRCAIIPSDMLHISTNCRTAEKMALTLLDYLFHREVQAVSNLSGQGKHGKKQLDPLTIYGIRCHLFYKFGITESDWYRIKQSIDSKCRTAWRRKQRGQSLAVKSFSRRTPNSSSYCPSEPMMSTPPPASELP

T10: BANP full-length WT (human, UniProt Q8N9N5 1-519)
T10 sequence: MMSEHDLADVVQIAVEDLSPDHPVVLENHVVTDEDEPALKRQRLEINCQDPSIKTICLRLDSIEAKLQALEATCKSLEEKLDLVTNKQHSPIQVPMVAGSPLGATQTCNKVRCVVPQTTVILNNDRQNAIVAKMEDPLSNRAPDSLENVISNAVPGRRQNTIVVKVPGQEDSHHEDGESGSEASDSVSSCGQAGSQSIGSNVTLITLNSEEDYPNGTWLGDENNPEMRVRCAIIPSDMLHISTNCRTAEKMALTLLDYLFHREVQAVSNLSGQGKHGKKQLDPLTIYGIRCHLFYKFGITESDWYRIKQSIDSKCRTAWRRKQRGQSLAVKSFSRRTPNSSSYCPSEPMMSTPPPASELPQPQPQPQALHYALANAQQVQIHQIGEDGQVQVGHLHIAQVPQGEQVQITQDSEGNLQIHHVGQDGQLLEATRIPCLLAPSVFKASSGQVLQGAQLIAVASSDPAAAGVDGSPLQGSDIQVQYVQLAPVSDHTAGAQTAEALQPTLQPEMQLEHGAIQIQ

T11: BANP ΔCC (human, UniProt Q8N9N5 90-519)
T11 sequence: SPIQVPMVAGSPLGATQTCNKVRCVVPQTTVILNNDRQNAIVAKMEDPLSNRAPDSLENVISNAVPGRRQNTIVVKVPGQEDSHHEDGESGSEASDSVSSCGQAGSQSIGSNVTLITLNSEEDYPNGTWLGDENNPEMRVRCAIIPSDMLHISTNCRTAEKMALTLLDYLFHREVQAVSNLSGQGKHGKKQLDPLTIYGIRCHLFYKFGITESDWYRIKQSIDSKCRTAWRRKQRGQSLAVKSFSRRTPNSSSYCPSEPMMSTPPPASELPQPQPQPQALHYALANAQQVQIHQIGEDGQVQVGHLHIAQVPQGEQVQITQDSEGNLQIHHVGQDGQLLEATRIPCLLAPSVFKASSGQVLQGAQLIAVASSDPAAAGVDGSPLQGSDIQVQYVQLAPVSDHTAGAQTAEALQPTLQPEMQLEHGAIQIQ

T12: GST-BANP BEN (human, UniProt Q8N9N5 205-325)
T12 sequence: T8 sequence

T13: BANP BEN-DBD (human, UniProt Q8N9N5 205-519)
T13 sequence: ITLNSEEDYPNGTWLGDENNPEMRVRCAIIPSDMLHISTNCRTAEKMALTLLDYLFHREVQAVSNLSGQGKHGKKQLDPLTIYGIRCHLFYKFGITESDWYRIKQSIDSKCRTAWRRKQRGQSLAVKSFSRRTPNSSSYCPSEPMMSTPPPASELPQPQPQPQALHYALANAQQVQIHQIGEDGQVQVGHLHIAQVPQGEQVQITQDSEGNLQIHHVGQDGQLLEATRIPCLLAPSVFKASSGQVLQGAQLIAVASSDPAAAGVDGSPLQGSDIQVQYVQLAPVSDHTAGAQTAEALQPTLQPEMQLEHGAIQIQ

B1: 12-CATG (dsDNA)
DNA 1: ATTACATGTAAT
DNA 2: ATTACATGTAAT
B2: 12-mCGCG (dsDNA)
DNA 1: ATCTCGCGAGAT
DNA 2: ATCTCGCGAGAT
modifications: 5-methyl-C at position 5 of each strand (palindrome; called hemi-methylated, one CpG methylated)

What was measured:
NACC1 BEN D462A = molecular target: T1, NACC1 BEN D462A; assay: ITC; ITC: 20 mM Tris pH 7.5, 200 mM NaCl, 2 mM beta-mercaptoethanol, 20 C; EMSA: 20 mM Tris pH 7.0, 200 mM NaCl, 2 mM DTT, 4 C, 1.2% agarose in TAE; details: protein: recombinant; tags: His-SUMO or His-MBP, cleaved; blunt, self-complementary
NACC1 BEN R429A = molecular target: T2, NACC1 BEN R429A; assay: as above; details: protein: recombinant; tags: His-SUMO or His-MBP, cleaved; blunt, self-complementary
NACC1 BEN R421A = molecular target: T3, NACC1 BEN R421A; assay: as above; details: protein: recombinant; tags: His-SUMO or His-MBP, cleaved; blunt, self-complementary
NACC1 BEN N466A = molecular target: T4, NACC1 BEN N466A; assay: as above; details: protein: recombinant; tags: His-SUMO or His-MBP, cleaved; blunt, self-complementary
NACC1 BEN WT = molecular target: T5, NACC1 BEN WT; assay: as above; details: protein: recombinant; tags: His-SUMO or His-MBP, cleaved; blunt, self-complementary
NACC1 BEN R472A = molecular target: T6, NACC1 BEN R472A; assay: as above; details: protein: recombinant; tags: His-SUMO or His-MBP, cleaved; blunt, self-complementary
NACC1 BEN R469A = molecular target: T7, NACC1 BEN R469A; assay: ITC; Kd N.A.; almost completely abolished; ITC: 20 mM Tris pH 7.5, 200 mM NaCl, 2 mM beta-mercaptoethanol, 20 C; EMSA: 20 mM Tris pH 7.0, 200 mM NaCl, 2 mM DTT, 4 C, 1.2% agarose in TAE; details: protein: recombinant; tags: His-SUMO or His-MBP, cleaved; blunt, self-complementary
BANP BEN WT = molecular target: T8, BANP BEN WT; assay: ITC; ITC: 20 mM Tris pH 7.5, 200 mM NaCl, 2 mM beta-mercaptoethanol, 20 C; EMSA: 20 mM Tris pH 7.0, 200 mM NaCl, 2 mM DTT, 4 C, 1.2% agarose in TAE; details: protein: recombinant; tags: His-SUMO or His-MBP, cleaved; chain copies: 2; blunt, self-complementary
BANP CC-BEN (ΔDBD) = molecular target: T9, BANP CC-BEN (ΔDBD); assay: as above; details: protein: recombinant; tags: His-SUMO or His-MBP, cleaved; blunt, self-complementary
BANP full-length WT = molecular target: T10, BANP full-length WT; assay: as above; details: protein: recombinant; tags: His-SUMO or His-MBP, cleaved; chain copies: 4; blunt, self-complementary
BANP ΔCC = molecular target: T11, BANP ΔCC; assay: as above; details: protein: recombinant; tags: His-SUMO or His-MBP, cleaved; blunt, self-complementary
GST-BANP BEN = molecular target: T12, GST-BANP BEN; assay: as above; details: protein: recombinant; tags: N-terminal GST fusion; chain copies: 2; blunt, self-complementary
BANP BEN-DBD = molecular target: T13, BANP BEN-DBD; assay: as above; details: protein: recombinant; tags: His-SUMO or His-MBP, cleaved; blunt, self-complementary

Binder | Kd (NACC1 BEN D462A) [µM] | Kd (NACC1 BEN R429A) [µM] | Kd (NACC1 BEN R421A) [µM] | Kd (NACC1 BEN N466A) [µM] | Kd (NACC1 BEN WT) [µM] | Kd (NACC1 BEN R472A) [µM] | binding result (NACC1 BEN R469A) | Kd (BANP BEN WT) [µM] | Kd (BANP CC-BEN (ΔDBD)) [µM] | Kd (BANP full-length WT) [µM] | Kd (BANP ΔCC) [µM] | Kd (GST-BANP BEN) [µM] | Kd (BANP BEN-DBD) [µM]
B1 | 4.6 ± 0.4 | 34.7 ± 4.5 | 4.6 ± 0.6 | 2.9 ± 0.4 | 1.3 ± 0.2 | 8.6 ± 1.4 | no binding | – | – | – | – | – | –
B2 | – | – | – | – | – | – | – | 5.6 ± 0.7 | 4.3 ± 0.8 | 4.9 ± 1.4 | 5.6 ± 0.9 | 3.5 ± 0.6 | 8.3 ± 0.6
